Assay results taken from patent US11160886B2, “Method for labeling of sensitive and thermosensitive targeting biomolecules with technetium based compounds” (BRACCO IMAGING SPA, priority 2016, dated 2021).

Columns and labels:
Metabolites in the urine = assay type: in vivo, rats; conditions: urine at 2 and 4 h p.i.
Procedure: Metabolites in the Urine.
At 2 and 4 h p.i. the urine was collected directly from the bladder and analyzed by HPLC (FIG. 12).

αvβ3 integrins = assay type: in vivo, NOD/SCID mice; conditions: 120 min post injection
Procedure: Before injection, ^99mTc complexes were purified using a reversed-phase C18 Sep-Pack cartridge to remove the excess of unlabeled ligands. After purification, the activity recovered was further diluted with PBS to obtain a final solution that is <0.5% in EtOH content. The RCP and the stability of the purified complexes were evaluated prior to in vivo administration and for the succeeding 18 h.
Distribution in Tumor Bearing Mice.
Tumor uptake studies were performed on complex 9 in NOD/SCID mice to determine the effective capability of the complex to detect in vivo endogenously expressed αvβ3 integrins. For induction of tumor xenografts, M21 (αvβ3 positive) and M21L (αvβ3 negative) cells were subcutaneously injected at a concentration of 5×10^6 cells/mouse and allowed to grow until tumor of 3 mm is palpable. The solution containing the purified radiolabeled peptide (15 μCi/200 μL) was injected intravenously into the tail vein. The animals (n=5) were sacrificed by cervical dislocation at 2 h post injection. Tumors and other tissues (blood, heart, lung, liver, kidneys, stomach, intestine, muscle) were removed, weighed, and the activity was counted in a Nal well counter. The results were expressed as the percentage of injected activity per gram of tissue (% IA/g) and tumor to organ ratios were calculated.

[1] = Challenge reactions (transchelation) with excess Cys, GSH or EDTA, RCP by HPLC; assay type: physicochemical; conditions: Cys 10 mM; for % RCP after incubation with excess Cys: 37° C.
Procedure: The transchelation studies were performed for some compounds monitoring by HPLC the radiochemical purity (RCP) of the complexes in presence of an excess of exchanging ligands over the time. The experiments were performed in triplicate.
Challenge experiments were carried out on the purified [^99mTc(N)(PNP3OH)]-labeled small size compounds (complex 1, complex 2, complex 9 and complex 10) using an excess of glutathione (GSH) or Cys. An aliquot (50 μl) of an aqueous stock solution of cysteine hydrochloride (10 mM; 1 mM) was added to a propylene test tube containing PB (250 μl, 0.2 M; pH 7.4), water (100 μl) and the selected [^99mTc(N)(PNP3OH)]-compound (100 μl). The mixture was vortexed and incubated at 37° C. for 24 h. A control reaction containing an equal volume of water, instead of cysteine hydrochloride, was studied in parallel. At 30 min, 1, 3 and 24 h, aliquots of the reaction mixture were withdrawn and analyzed by HPLC chromatography. A similar procedure was applied using GSH (50 μl, 10 mM) as challenge ligand.
For [^99mTc(N)(PNP3OH)(Cys-Gly-Lys-Gly-ApoMb)]^+ (“Cys-Gly-Lys-Gly” disclosed as SEQ ID NO: 1) additional experiments were conducted using EDTA (50 μl, 10 mM) as exchanging ligand.

## [^99mTc(N)(PNP3OH)(Cys-cRGDfK)]^+ [Complex 9]
Metabolites in the urine
  In vivo metabolism (urine HPLC, FIG. 12): remained stably incorporated into the structure of the final complex
αvβ3 integrins; M21 (αvβ3 positive) tumor, mice
  Tumor uptake: M21: 4.38±0.69 % IA/g
αvβ3 integrins; M21L (αvβ3 negative) tumor, mice
  Tumor uptake: M21L: 1.05 ± 0.62 % IA/g
αvβ3 integrins; tumor bearing mice
  Biodistribution: Blood: 0.03 ± 0.01 % IA/g
  Biodistribution: Heart: 0.44 ± 0.09 % IA/g
  Biodistribution: Intestine: 5.05 ± 1.24 % IA/g
  Biodistribution: Kidney: 3.19 ± 0.18 % IA/g
  Biodistribution: Liver: 3.87 ± 0.81 % IA/g
  Biodistribution: Lungs: 1.22 ± 0.25 % IA/g
  Biodistribution: Muscle: 0.20 ± 0.07 % IA/g
  Biodistribution: Spleen: 1.51 ± 0.22 % IA/g
  Biodistribution: Stomach: 0.96 ± 0.20 % IA/g
  M21/blood ratio: 146
  M21/liver ratio: 1.13
  M21/lung ratio: 3.59
  M21/muscle ratio: 21.9
[1]; 3 h
  % RCP after incubation with excess Cys: 75.93%
[1]; 24 h
  % RCP after incubation with excess Cys: 27.31%
[1]; versus complex 1 and complex 11
  Stability toward Cys transchelation relative to neutral complexes: higher stability toward Cys transchelation
